Test results taken from paper PMC8449268, “Activity of the yeast vacuolar TRP channel TRPY1 is inhibited by Ca^2+–calmodulin binding” (The Journal of Biological Chemistry, 2021).
Values belong to the binder of their own block, whether it stands above or below them.

Tests used:
Settings in all cases: both partners purified
[1] = molecular target: T1, GST-Cmd1 (yeast calmodulin fused to glutathione-S-transferase) (S. cerevisiae (yeast), UniProt P06787 1-147); assay: peptide or protein array; 20-mer TRPY1 peptides shifted by five residues on cellulose membrane (16 nmoles per spot); ^14C-GST-Cmd1 (60 cpm per spot) in 50 mM Tris pH 7.5, 150 mM NaCl, 0.1% Triton X-100, 2 mM CaCl2, 4 °C, 16 h; autoradiography
T1 construct: Yeast calmodulin Cmd1, wild type; In the peptide scan the same fusion protein was used ^14C-labelled (^14C-GST-Cmd1); also called GST-fused Cmd1; yeast CaM; source: E. coli, purified (glutathione sepharose)

[2] = molecular target: T1, GST-Cmd1 (yeast calmodulin fused to …); assay: pull-down; MBP-fused TRPY1 fragments (12 ug) immobilised on amylose resin, incubated with 12 ug GST-Cmd1 or GST-Cmd1–6 with 2 mM Ca2+, 60 min, 4 °C; bound protein detected by anti-GST blot
6His-Cmd1 = molecular target: T2, 6His-Cmd1 (S. cerevisiae (yeast), UniProt P06787 1-147); assay: pull-down; GST, GST-Cmd1 or GST-TRPY1-C (12 ug) immobilised on glutathione sepharose; 6His-Sumo-TRPY1-N or 12 ug 6His-Cmd1 added, 2 mM CaCl2, 60 min, 4 °C; SDS-PAGE and Coomassie blue staining
T2 construct: Yeast calmodulin Cmd1, wild type; also called yeast CaM; source: E. coli, purified (Ni–NTA agarose)
T2 sequence (P06787 whole entry): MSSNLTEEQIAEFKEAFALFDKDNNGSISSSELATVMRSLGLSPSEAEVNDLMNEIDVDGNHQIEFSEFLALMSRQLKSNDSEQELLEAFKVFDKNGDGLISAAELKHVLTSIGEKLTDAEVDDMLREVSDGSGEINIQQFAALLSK

T1 sequence (P06787 whole entry, the tested form may be a part): as the sequence (P06787 whole entry) above

binding result [1]: binds
B1: TRPY1 C-terminal peptide of the peptide scan, residues 527–546 (peptide, UniProt Q12324 527-546, looked up)
peptide: VYSPFLLLISVKETREARRI
notes: source: synthetic peptide, spot-synthesised on cellulose membrane

binding result [2]: binds
B2: MBP-TRPY1-C (cytosolic C terminus of TRPY1 fused to maltose-binding protein) (domain or fragment, S. cerevisiae, UniProt Q12324 538-675, looked up)
chain: KETREARRIKYNRMKRLNDDANEYDTPWDLTDGYLDDDDGLFSDNRNSGMRATQLKNSRSLKLQRTAEQEDVHFKVPKKWYKNVKKCSPSFEQYDNDDTEDDAGEDKDEVKELTKKVENLTAVITDLLEKLDIKDKKE
notes: TRPY1 (Yvc1, gene YVC1), Saccharomyces cerevisiae; cytosolic C terminus, printed as 137 amino acids, residues 538-675 (K538 to E675); The limits 538-675 are printed for GST-TRPY1-C and for 'the complete recombinant TRPY1 C terminus'; also called MBP-fused TRPY1-C; Yvc1 C terminus; source: E. coli, purified (amylose resin)

binding result (6His-Cmd1): binds
B3: GST-TRPY1-C (538–675) (domain or fragment, S. cerevisiae, UniProt Q12324 538-675, looked up)
chain: KETREARRIKYNRMKRLNDDANEYDTPWDLTDGYLDDDDGLFSDNRNSGMRATQLKNSRSLKLQRTAEQEDVHFKVPKKWYKNVKKCSPSFEQYDNDDTEDDAGEDKDEVKELTKKVENLTAVITDLLEKLDIKDKKE
notes: TRPY1 (Yvc1), Saccharomyces cerevisiae; cytosolic C terminus, printed as 137 amino acids, residues 538-675 (K538 to E675); also called GST-tagged TRPY1-C; source: E. coli, purified (glutathione sepharose)
